Assay results published in US20090017017A1 (SYMPHOGEN A S, published 2009).

T1: Rhesus D antigen (human, UniProt Q02161 2-417)
T1 construct: whole, on cells; Presented on RhD(+) erythrocytes; also called RhD; RhD antigen
T1 sequence (looked up): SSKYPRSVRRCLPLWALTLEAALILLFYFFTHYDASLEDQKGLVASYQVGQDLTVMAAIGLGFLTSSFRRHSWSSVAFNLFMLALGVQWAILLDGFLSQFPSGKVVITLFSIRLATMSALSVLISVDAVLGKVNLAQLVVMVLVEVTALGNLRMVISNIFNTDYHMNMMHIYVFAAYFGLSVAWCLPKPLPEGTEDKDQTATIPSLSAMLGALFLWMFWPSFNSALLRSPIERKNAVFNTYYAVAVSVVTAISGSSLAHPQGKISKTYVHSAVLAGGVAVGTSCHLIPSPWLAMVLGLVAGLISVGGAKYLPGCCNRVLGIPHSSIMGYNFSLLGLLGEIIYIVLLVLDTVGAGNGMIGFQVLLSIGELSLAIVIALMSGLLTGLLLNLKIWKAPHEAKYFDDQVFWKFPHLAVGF

B1: RhD200.164G10 (Fab, V domains shown)
VH: VQLVESGGGGVVQPGRSLRLSCAASGFTFSSYGMHWVRQAPGKGLEWVAVIWYDGSNKYYADSVKGRFTISRDNSKNTLYLQMNSLRAEDTAVYYCARESTLYSSSWYRRYYYYGMDVWGQGTTVTVSS
VL: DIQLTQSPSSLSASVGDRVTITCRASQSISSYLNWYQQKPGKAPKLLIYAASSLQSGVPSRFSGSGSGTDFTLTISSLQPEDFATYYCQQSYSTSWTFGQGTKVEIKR
notes: Tested as Fab in E. coli periplasmic extract (VH on human gamma 1 CH1, vector Em351)
B2: RhD201.164H12 (Fab, V domains shown)
VH: QVQLVESGGGVVQPGRSLRLSCAASGFTFSSYAMHWVRQAPGKGLEWVAVISYDGSNKYYADSVKGRFTISRDNSKNTLYLQMNSLRAEDTAVYYCARESTLYSSSWYRRYYYYSMDVWGQGTTVTVSS
VL: EIVLTQSPATLSVSPGERATLSCRASQSVTSNLAWYQQKPGQAPRLLIYGASTRATGVPARFSGSGSGTEFSLTISSLQSEDFAVYYCQQYNNWPPIFTFGPGTKLDIKR
notes: as for B1
B3: RhD193.126G05 (Fab, V domains shown)
VH: QVQLVETGGGVVQPGRSLRLSCAASGFTFSSYGMHWVRQAPGKGLEWVAVIWYDGSNKDYADPVKGRFTISRDNSKNTLYLQMNSLRAEDTAVYYCAREIASRGYSRYLYYFDSWGQGTLVTVSS
VL: DIQMTQSPSSLSASVGDRVTITCRASQSISSYLNWYQQNPGKAPKLLIYGASNLQSGVPSRFSGSGSGTDFTLTISSLQPEDFATYYCQQSYSTLALTFGGGTKVEIKR
notes: as for B1
B4: RhD297.126E06 (Fab, V domains shown)
VH: QVQLVESGGGVVQPGRSLRLSCAASGFTFRTYGMHWVRQAPGKGLEWVAVIWYDGSNKDYADSVKGRFTISRDNSKNTLHLQMNSLRAEDTAVYYCAREIASRGYSRYLYYLDFWGQGTLVTVSS
VL: DIQLTQSPSSLSASVGDRVTITCRASQSISSYLNWYQQNPGKAPKLLIYGASNLQSGVPSRFSGSGSGTDFTLTISSLQPEDFATYYCQQSYSTLALTFGGGTKVEIKR
notes: as for B1
B5: RhD194.126G10 (Fab, V domains shown)
VH: QVTLKESGPVLVKPTETLTLTCTVSGFSLSNARMGVSWIRQPPGKALEWLAHIFSNDEKSYSTSLKSRLTISKDTSKSQVVLTMTNMDPVDTATYYCARMRLTMVRGVITYYYYSMDVWGQGTTVTVSS
VL: DIQMTQSPSSLSASVGDRVTITCRASQSISTYLNWYQQKPGKAPKLLIYAASTLQSGVPSRFSGSGSGTHFTLTISSLQREDFATYYCQQTYRTPTWTFGQGTKVEIKR
notes: as for B1
B6: RhD298.126E10 (Fab, V domains shown)
VH: QVQLVESGGGVVQPGRSLRLSCAASGFTFSSYGMHWVRQAPGKGLEWVAVIWYDGSNKYYADSVKGRFTISRDNSKNTLYLQMNSVRAEDTAVYYCARDLSTQRGYSRYYYVMDVWGQGTTVTVSS
VL: DIQMTQSPSSLSASVGDRVTITCRASQSISTYLNWYQQKPGKAPKLLISAASSLQSGVPSRFSGSGSGTDFTLTISSLQREDYAAYYCQQSYSTPPYTFGQGTKLEIKR
notes: as for B1
B7: RhD196.126H11 (Fab, V domains shown)
VH: QVQLVESGGGVVQPGRSLRLSCAASGFTFSSYGMHWVRQAPGKGLEWVAVIWYDGSNKDYADSVKGRFTISRDNSKNTLYLQMNSVRAEDTAVYYCARELSTQRGYSRYHYVMDVWGQGTTVTVSS
VL: DIQMTQSPSSLSASVGDRVTITCRASQSISTYLNWYQQKPGKAPKLLIYAASTLQSGVPSRFSGSGSGTHFTLTISSLQREDFATYYCQQSYGTPTWTFGQGTKVEIKR
notes: as for B1
B8: RhD198.127F10 (Fab, V domains shown)
VH: QVQLVQSGGGVVQPGKSLRLSCAASGFTFSTYGMHWVRQAPGKGLEWVAVIWYDGSNKYYADSVKGRFTISRDTSKNTLYLQMNSVRVEDTAVYYCARDLTTQRGYSRYHYVMDVWGQGTTVTVSS
VL: DIQMTQSPSSLSASVGDRVTITCRASQSIGNYLNWYQQKPGKAPKLLISAASSLQSGVPSRFSGSGSGTDFTLTISSLHREDYATYYCQQSYSTPPYTFGQGTKLEIKR
notes: as for B1
B9: RhD192.119G06 (Fab, V domains shown)
VH: QVQLVESGGGLVKPGGSLRLSCAASGFTFSSYAMNWVRQAPGKGLEWVSSISGTSSYIYYADSVKGRFTIFRDNAKSSVYLQMNSLRVEDTAVYYCARDRWWGMVRRVFPTYPFDYWGQGTLVTVSS
VL: DIQLTQSPSSVSASVGDRVTITCRASQGINNLLAWYQQKPGKAPKLLIYAASNLQSGVPSRFSGSGSGTDFTLTINSLQPEDFATYYCQQANSFPLTFGGGTKVEIKR
notes: as for B1
B10: RhD191.119E08 (Fab, V domains shown)
VH: QVQLVESGGDLVQPGGSLRLSCAASGFTFRSYEMNWVRQAPGKGLEWVSYINSRGNTKYYADSVKGRFTISRDNAKKSLYLQMSSLRAEDTAVYYCARNLFGDYDLKSYYYNAMDVWGQGTLVTVSS
VL: EIVLTQSPGTLSSSPGERATLSCRASQSVTSRYLAWYQQKHGQAPRLLIYGTSTRATGIPDRFSGGGSQTDFTLTISRLEPEDFAVYYCQHYDDSISTYIFGPGTELEIKR
notes: as for B1
B11: RhD195.127A07 (Fab, V domains shown)
VH: QVQLQESGPGLVKPSQTLSLTCTVSGGSISSGSYYWSWIRQPAGKGPEWIGRIYTSGSTNYNPSLKSRLTISVDTSKNQFSLKLTSVTAADTAVYYCARAPSYYDSSGYRYWYIDLWGRGTLVTVSS
VL: DIQLTQSPSSLSASVGDRVTITCRASQNINRYLNWYQHKPGRAPELLIYAASTLRRGVPSRFSGSGSGTDFTLTISSLQPEDFATYYCQQSYSRGTFGQGTKVEIKR
notes: as for B1
B12: RhD157.119D11 (Fab, V domains shown)
VH: EVQLVESGGGLVQPGGSLRLSCVASGFTFRSFDMNWVRQAPGKGLEWVSYINSRGSTIYYADSVKGRFTISRENAKNSLYLQMNSLRAEDTAVYYCARDLYGDYDPKSYYYYGMGVWGQGTTVTVSS
VL: EIVLTQSPATLSLSPGERATLSCRASQSVSSYLAWYQQKRGQAPRLLIFNASNRATGIPARFSGSGSGTDFTLTISSLEPEDFAVYYCQQRSSWPPMYTFGQGTKLEIKR
notes: as for B1
B13: RhD197.127A08 (Fab, V domains shown)
VH: QVQLVESGGGVVQPGRSLRLSCAASGFTFSNYGMHWVRQAPGKGLEWVAVIWFDGSNRDYADSVKGRFTISRDNSKKTLYLQMNSLRAEDTAVYYCATELARGRLRALEYWGQGTLVTVSS
VL: QTVVTQEPSLTVSPGGTVTLTCASSTGAVTTGYYPNWFQQKPGQAPRALIYSTSKKHSWTPARFSGSLLGGKAALTLSGVQPEDEAEYYCLLFYGGAQLGVFGGGTKLTVLG
notes: Tested as Fab in E. coli periplasmic extract (VH on human gamma 1 CH1, vector Em351); Lambda clone
B14: RhD207.127A11 (Fab, V domains shown)
VH: EVQLVESGGGVVQPGRSLRLSCAASGFTFSSYGMHWVRQAPGKGLEWVAVIWYDGSNKDYVDSVKGRFTISRDNSKNTLYLQMNSLRAEDTAVYYCARELAKGRLRDLDHWGQGTLVTVSS
VL: QAVVTQEPSLTVSPGGTVTLTCASSTGAVTTGYYPNWFQQKPGQAPRALVHSTSKKHSWTPARFSGSLLGGKAALTLSGVQPEDEAEYYCLLFYGGAQLGVFGGGTKLTVLG
notes: as for B1
B15: RhD190.119F05 (Fab, V domains shown)
VH: EVQLVETGGGVVQPGRSLRLSCAASGFSFSNYGMHWVRQAPGKGLEWVAVIWFDGSIKYYVDSVKGRFTISRDNSKNTLYLQMNSLRAEETAIYFCARENSVLVPGTIRRRYYLDYWGQGTLVTVSS
VL: DIQLTQSPSSLSASVGDRVTITCRASQSISSYLNWYQQKPGEAPKLLIYVASTLQSGAPSRFSGSGSGTDYTLTISSLQPEDSATFYCQQTYSPPYTFGQGTKLEIKR
notes: as for B1

target: T1, Rhesus D antigen; test: agglutination assay, Fab periplasmic extract on RhD(+)/RhD(-) RBC mix
Protocol: After each round of panning single colonies were picked for analysis of their binding properties to red blood cells in agglutination assays. Briefly, single colonies were inoculated into 2×YT/100 μg/mL carbenicillin/1% glucose and shaken overnight at 37° C. The next day, DeepWell plates were inoculated using 900 μl 2×YT/100 μg/mL carbenicillin/0.1% glucose and 10 μl overnight culture. The plates were shaken for two hours at 37° C., before Fab induction was performed with addition of 300 μl 2×YT/100 μg/mL carbenicillin/0.25 mM IPTG per well. The plate was shaken overnight at 30° C. The following day, the bacteria were pelleted by centrifugation (3200×g, 4° C., 10 minutes), and re-suspended in 100 μl of 0.8 M NaCl, 0.2×PBS, 8 mM EDTA, and incubated for 15 minutes on ice in order to perform a periplasmic extraction of the Fab fragments. The plate was transferred to −20° C. and finally the suspension was thawed and centrifugation was performed for 10 minutes at 4° C. and 3200×g. The periplasmic extract was used in ELISA assays for analysis of Fab content and in agglutination assays to evaluate the binding potential of the individual Fab fragments.
The agglutination assay was performed as follows: RhD(−) and RhD(+) RBC were mixed in a 1:1 ratio, and washed 3 times in PBS. After the final wash, the cell mix was re-suspended in 1% BSA in PBS at a density of 10% cells, 50 μl was added to each well of a 96-plate. Periplasmic extracts were added to the wells. As a positive control Rhesogamma P immunoglobulin (Aventis) was used according to the manufacturer's instructions. The plates were incubated for one hour at room temperature with gentle shaking. The cells were washed three times with PBS, before the secondary antibody was added (goat anti-human Fab/FITC conjugate, Sigma F5512) in a 1:100 dilution. The plates were left for agglutination for one hour at room temperature without shaking. Fab fragments positive in the agglutination assay was determined by visual inspection, and recorded by taking a picture. Quantization of the binding activity of the Fab fragments was performed by FACS analysis of the agglutination samples.

Binding result, binds:
B1, B2, B3, B4, B5, B6, B7, B8, B9, B10, B11, B12, B13, B14, B15
